Reference: patent US20170290925A1, “Conjugates And Conjugating Reagents” (priority 2014, published 2017)
pIC50: −log10 of the molar value. Where a SMILES comes first, the peptide text is derived from it. [ ]: non-standard residue; d: D form. The star is where a group is joined. Dolaproine = CO[C@@H]([C@@H]1CCCN1)[C@@H](C)C(=O)O; Dil = CC[C@H](C)[C@H](NC)[C@@H](CC(=O)O)OC; X1 = C[C@@H](N*)[C@@H](O)c1ccccc1; NMeV = CN[C@H](C(=O)O)C(C)C

Assays:
[1] = test system: CD30-positive Karpas 299 cell line; assay: In vitro cell viability assay (CellTiter Glo) in Karpas 299; assay type: cell-based, human; conditions: Karpas 299 cells, 72 h incubation, conjugates DAR 4
Method: Purified brentuximab drug conjugates 10 and 11 with a drug to antibody ratio (DAR) of four as described in Example 6, were evaluated in vitro by measuring the inhibitory effect on cell growth of (CD30)-positive cell line Karpas 299 using the method described below.
Loss of tumour cell viability following treatment with cytotoxic drugs or ADCs in vitro can be measured by growing cell lines in the presence of increasing concentrations of drugs or ADCs and quantifying the loss of proliferation or metabolic activity using CellTiter Glo® Luminescence reagent (Promega Corp. Technical Bulletin TB288; Lewis Phillips G. D, Cancer Res 2008; 68:9280-9290). […]
The human T cell lymphoma cell line Karpas 299 was obtained from Dr Abraham Karpas at the University of Cambridge. […] CD30-positive Karpas 299 were counted using a Neubauer haemocytometer and adjusted to a cell density of 5×10^4/mL. […]
The cell viability assay was carried out using the Cell-Titer Glo® Luminescence reagent, as described by the manufacturer's instructions, (Promega Corp. Technical Bulletin TB288; Lewis Phillips G. D, Cancer Res 2008; 68:9280-9290). […] Luminescence was recorded using a plate reader (e.g. MD Spectramax M3 plate reader), and data subsequently analysed using a four parameter non-linear regression model. […]

[2] = In vivo pharmacokinetics in rats, average DAR by CD30 affinity capture and HIC; design: species or system Sprague-Dawley rats; conditions: single dose 7 mg/kg IV, period of 850 h
Method: (§1) Brentuximab conjugate 10 was used in this study as the ADC with a pendant PEG group. Brentuximab conjugate 11 was used as a comparator with a non-pendant PEG group.
(§2) In vivo pharmacokinetics in rats. Sprague-Dawley rats (3 rats per group) with an average weight of 200 g were treated with either 10, 11 or Adcetris®, via the tail vein (IV, bolus) at a single dose of 7 mg/kg. Serial sampling of 100 μL blood was performed before dosing and subsequently at 30 min, 24 h, 48 h, 7 d, 14 d and 35 d post-dosing respectively. Plasma was prepared from fresh blood samples and frozen at −80° C. until analysis.
CD30 affinity capture for average DAR determination Affinity capture was performed using streptavidin coated magnetic beads (Dynabeads-Streptavidin T1, Life Technologies). […] 500 1AL of the plasma sample in PBS was added to the CD30-coated beads and incubated overnight at 4° C. and finally washed using PBS. Captured antibodies were eluted using acidic elution buffer for 5 minutes at 4° C. […] Eluted samples were further mixed with HIC loading buffer and analysed using hydrophobic interaction chromatography with UV detection (HIC-UV).
Hydrophobic interaction chromatography for average DAR determination. Affinity captured ADCs were analysed using hydrophobic interaction chromatography in order to determine the average drug to antibody ratio (DAR). […]

[3] = In vivo pharmacokinetics in rats, total (anti-CD30 antibody) ELISA; design: species or system Sprague-Dawley rats; conditions: single dose 7 mg/kg IV, period of 850 h
Method: as §1, §2
Total (anti-CD30 antibody) ELISA. Total brentuximab antibody content from plasma samples was quantified using ELISA technology. Briefly, Maxisorp™ 96 well plates (Nunc/Fisher) were coated with recombinant human CD30, (Sino Biological Inc, 2.5 μg/mL in diluent) and incubated at 4° C. overnight. Plasma samples were diluted to ensure that the unknown ADCs fell within the linear range of the sigmoidal standard calibration curve. […]
IgG, (Promega) was added to the plate and the samples were incubated for 1 hour at room temperature on a shaker at 350 rpm. […] The assay was stopped with 100 μL of 0.5 M H2SO4 and read at UV λ=[…] using the plate reader. Data were plotted and evaluated in GraphPad Prism 5 and Microsoft Excel.

| Compound | pIC50 [1] | Rate of drug loss from the conjugate (average DAR) [2] | Rate of clearance from the circulation (total antibody) [3] |
| --- | --- | --- | --- |
| CC[C@H](C)[C@@H]([C@@H](CC(=O)N1CCC[C@H]1[C@H](OC)[C@@H](C)C(=O)N[C@H](C)[C@@H](O)c1ccccc1)OC)N(C)C(=O)[C@@H](NC(=O)[C@@H](NC)C(C)C)C(C)C [MMAE] (H-[NMeV]V[Dil][Dolaproine]-X1) | 9.98 | – | – |
| Adcetris® | – | much faster rate of drug dissociation | cleared more quickly |
